Results: the NTF2 design screens of Basanta et al. (2020)

experiment: protease stability score; higher = more stable; yeast display proteolysis, trypsin and chymotrypsin;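 also: log10 excess protease needed over predicted unfolded state with 0 meaning unfolded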

Sequence | protease stability score
DDQKTANHLNKQFKDVWTSGDEHRLQELMDPNVRVDVGDKRYKGDEQVNKYFIDLLRNVDHVDFDVKDMKARGEKVLLVVDIRVDINGKRHRFNARQIFTVEGDQARVKVYHDG | 0.653
DDQKVRVASELLKAIERGDPDQARELMDENAKMVIGETTFTGRDEAAKWISELKKHMRVQIQSVTFHDHNGQIVVNVTFEANINGDPFTMNLIVRVQVHNGRVQNVHYRLSEEQKRRLEQ | 0.969
DDQLFRVLQELWKALQEGDHKHAIDQAPEDARFHVGEKNYHGMEDAAKHLAEFYKQIRVRIEIKRYEINGDSLNVHVVVQMNNNGKPERRRNVILAKLHNGRMLEMQVHDRE | 0.064
DDQLRKKVKTFIRVIQSGNTQEAKKLMDPNARYHVGDKTVDGMDQWATIMTKLKDEMRIQLNVTSVTATNGHIHVRVEVNVDVNGRPINVTVNVYFHIENGRIQRVHYQMDPDEFKHIQR | -0.135
DDQLSDQLDKARKQIEEGNFEQVREYVDPNVSVHVGDKSVHGREKYTHEILRKHQELRYKVEVTRVHVENGRLDVKAQETVNHNGRPESSRYVLDLNMHNGRLKHMTKSSDK | -0.321
DDQNLRSAVRRLVDGNEERAKDTLDENARVEVGEYNFHGREEAQKAFQTMQDRIDHINVKSYKYQGDKASVDMVVEFNGRSVKFVVVVRVHNGHLVNARVQFTDEHQHKRAKEMID | -0.104
DDQQARDIAKELVKALQTGDPERFVELADPNARVEIGDKTYHGHDRMSEMIKTWHRDVDHIRIQDYRAKGDKIEIQFVLDINGKQNRLVMVVQVSNGRITVVFVRSG | 1.35
DDQQKAKTHVRQVRDAATSNDPDEMRRLADENARFVVGDKEYEGRDQVRELVERERDNVDQVEIRLTDVEKRGDRLRLEVRVVWNHNGSHDHKILDMIVQNHNGTLRFVQLQQR | 0.366
DDQRLRELNDTIAENIQSGDESKLSQLADPNVRLQIGDKEWHGREEMQKAWDELRRSADHIEIRSITAKGDHAVINAVLHHNGRTSQVRFDFSFHNGRIVRVSMHET | 1.48
DDQVAKMVRKLLRLEESGNEEELRKLADEEAEFVVGDKRYRGMTEYVQSVYHKKKEIRFKIITYSAEDDGDKIVVIIKMTNNHNGQPDTFRVKVVFVANNGNLKHANFRKRK | 0.39
DDRDAERLVELWKTGDPDKFANHMRDDVRVQIGDKSVRGRDEAHKILERLRQQIDHWEIKDYEVHGERVIIHAVATVNGRHLNFVIVVQMHNGRIQSVQYKVTSEDDQHRIKKLLD | 0.326
DDRDAKHFKEIMKHGNFEEMVRQADPNVTITIGDREVHGRHQAQKFVDTLNDRIDHYQVDEIDVKGEKITAEVAMVVNGVRVDFVIVMHFENGRIKSVRIEATNEHAHENFRRIHS | 0.561
DDRDEAHKLHEDYDRVMQTGDDDRVREMVDPNAKLRIGDQDLRGREELAELMKRQRDRADHVRIELRSVKVDGNKITMKLNFHLDHNGRTENTDATYHYEKDNGQWELKHAKVS | -0.052
DDRDEEKLQEQRKIHENNDEDRRKELVDPNVKFDVGDRHYHGRETNSKKFVDENREMRVEVDIKRVTNDEDHLRFEAHVVIRNNGQPDTKKVRLEQRLDGDKLKMERQEDKR | 0.276
DDRDIERAKEMFKAIKTGDPDRLSELVDENARVKIGDKEWHGNTEWVEDLERKKKEMSVDLQIHKIEDRNGVAQIHMTRRMDHNGKPRSDKYVLFIRARNGRIVDVRAEERS | 0.097
DDRDIERMAKDYVRAIRTGDEEQIRRLMDKDVKYEIGDKTIHGRENWAKWVKNFRRHADHVRLKDMRVHGNKIDLNMEFQVNGEKKRQKYDIQVHNGRIKTVRIEDS | 1.47
DDRDIKQAADRFLEDIKTNNPENVRKLVDENARVQIGDKQYRGKERIQEAMEEWIKRVDHWRIEDIKIHGDQVHVKMRINVNGRNLTFIMVVSIKNGTLKTLTMNVTDTEKLREMLR | 1.27
DDRDKVKSLWKQMLTILRTGDHKRWNKLVDKDVKYNIGDKSIHGKEEAEKLVKKIKDKVDTVSQTIVDVQNHNGRIHLRLRMVNNFNGNHNTYEVNAQFEKKNGRVKMQNQTDN | 0.149
DDRDLEQLLRELVTIWKNGNFEDLSRQADPNVKFRVGDKTYHGREQASKLWKKLSDQADHWSVDSVQAKGDTLRLDFRATVNGHEVRMVYHARIQNGSITSWEIQYTSEELHTRVER | 1.09
DDRDLETMVRLWRDNDSKRLKQNVDPNARIRYGNFEVHGREQVQKWIKLFRDRVDHNDIKRYQTTPGRLVMQLSATFNGVKVKFTMIVEFHNGNIRLIQINFTDEENMKHLVREVE | 1.55
DDRDLKRMADVLKTGDPDKLNENADKDAQVHVGNKRVHGREQFHEYQRRLREQIDHLHVKHIEITENKARIDYEFHVNGQKFSFTLTFQAHDGKLKRMSATFTSEEEEKRWDEIVD | 0.302
DDRDRKKQMSKLIEIFKEGDPRKWMELLDENARIQIGDTRIRGREHASDWLKKLRDHVDSISIHDMEVDGNHIRVVIEVVIDGRSAVYKFVVHLKNGKVKHVDVSATSKEHENNMSR | 1.5
DDREEARKMLHKADRALNDGDPRSAQNLVDENAQVVYGDKRYSGDQQAADVMVSLRHQYDHLSLEIDRLRVDGNRVHVDATLTAQRNGSTLHSKLNFVFSKKNGRLRVSHLVIG | 0.183
DDREIKELLQLMLDAIRDGNEQSASKMADENARVKVGDKKVHGREQIQELVKELKKNVDHFTVNDIKQQGDKASADAEMDVNGVTVHMEVRVQVHNGHVKHAEMTYRDEDQKRQFHQ | -0.433
DDRELDHAKKVAERNDPDKLRKLADPNAHLTVGDKKIHGMHNAAQKVVSMWEQADHVDIKHVDQHNGRVRVEFRFVVNGREMEMVMRFEVKNGHIKRLQLEFTSEELQKKFDKLAD | 0.57

Sequence | protease stability score
DDRELEDVQRVVETGDPDKLNDLADKDARMQVGDHKVRGSDQVRSLMDKLKKRIDHYDVKSITIRNGRLDATVVFVINGEEIEVRIVLRVHNGRLKEMSIHATSERVQTILKKAMS | 0.803
DDREMKKFAEQYARNLTRNDEDSLKDLFDENAEVTIGDKQVRGQEKIKSLLHQLHQQVDHFDLRRVDAQGDDIKIVVLWNHNGKHLNVTISMRVHNGRIKSATDHVRSEDDERKFKR | 0.569
DDREQAQKFMDLFEDAIKDGDPRQAEELAPPDAKARYGDKKLTGMHDIARHFIDEVKRVDHHRVTYKDIKNEGNKFVFTFVYTFKHNGQSDDKQVRVEAENHNGRLLVTSIHDT | 0.724
DDRERAERYLRQVENALHTNDPRQLKNQADKDVKIEIGETDLHGTKDFVKMMKEIINRADHARFTVRSVRRHGDKMRVEFTAEVNHNGRRRTHTIRITLQLENGDVVLQSLRVE | 0.302
DDREVDKVEELLKTGDFLKMANRADKNARMQIGDKEYRGREHVQDAAKRLDRQVDTEKVTDLRTDGEKVLVHYIQHFDGQNLEVDVEFHFHNGRLQEVVFHVRDPKKQKEFDKRVG | -0.235
DDREVVDRALKELRSILHEGDEEQMHRNFPPEASVKYGDTEYTGMESAAHLIIELRKRVDHMEQRVTTVNVRNGTVDVDMSADVRHNGREDSIKVKLILRISNGRAQLEQVINP | 1.18
DDRHEMKTALKQLIDAIRQGNPDTIMSLLDPNVTFTYGDQNIRGREHVNTELVHRRNRVDNVHVNLQDIDQDGEKLHARFQMVLRRNGRNDTRDMVLVAQVHNGKARIRRLHHG | 0.557
DDRHLHHRAREWAEQLKTNDEDELTKYVDPNARMRVGDKSVHGREKLQEQIHRDNERVDNVEIRSIRIENGTVNIRQVNDVNGRNDDFRVRMHIHNGQLKVNERHSP | -0.38
DDRHLQQLASIAAKALRTGNPKDMKKLVDPNAKMHYGDKEVHGREQMADVLRRIRRDADHIDLRSYSADNGRISIDMDLRVNGKKVRIIVKAEVHNGKVTHVTVDTK | 0.766
DDRHVQKRLKTFIHILRTGDPQKISNLVDPNAEIQVGDKEYHGRHEIRKLIEELKTRVDHIDVVDMKAEGDKARANLNVNVNGHDIRFVVQLVWDNGHVKSVRIKYRNERVERQEKG | 1.61
DDRIKELADRFMNALQTNDPDKINNLVDPNAKITVGDKSVRGDEQINRTMDQRKRELRQDYDVRSVEVHGNTAIIDVHVTFEHNGEPHKEKQTIIIHVKNGRAVDIKITRHS | -0.326
DDRIRQVVEEWWKAVETNDPDKAKENVDKDVRVEVGDKQFRGSETLEKRIRDEKDHARVVVRMQSVSVHGDTVDVTYNVVVEVNGNPLRFKAQAFFRARNGRMQSIQFSFSKEDKKRVDG | 0.916
DDRLNEMARRFITLLTTGDPKEAHKYMDENARFQIGDERYHGMHEFERLLTERQKTSRVQINSLEVQHEPNRANIHADVENERNGQPRRFDVIIELHAHNGRIKEITYEYRQ | -0.009
DDRLREVFEHIVELFKTGNPEELSRNVDPNARYQYGDKELHGRDHYRREVKDLIDTMRYEQEVDKVQKRGEKVRIEAEARHKENGRPNEFTFVIEFKAHNGKVKHEVQHESS | -0.15
DDRNKHIFKKIIEAERTGDEDKLRQNFDPNARFRIGNQTYHGREHWADRVSDLRKKIRVEIKIKRVQVDGDKVVVKYQVVYNVNGRPKKDTFRVVLHFQNGKAKHRTFQIDEERKEHLDS | 0.252
DDRNNHRAKTFLTALNHNDPDQMERMVDENAQVQVGDKSYRGREDMKRWLKELIDSIRLEVHVHSLTQHNGVAVADIEETRESNGDPEEDSFTLYIQVHNGQAKRLEESKKS | 0.552
DDRNQAEKQVDEMRKIAKTGDEDRMADLFIDNPRFNVGDETYHGREQVVKYFRDTFRQVDHMHITLRRLSVHNGRVKAEFDVTLNRNGRETKDIFVVIQVKHNGTLRIESVHQK | 0.781
DDRQIEVLKDYIKAVQQNDPDRMRQNADPNATFNVGDKRYHGMTEYAEEVAKHLKEMRFEIRDIRLRDHNGKVHVEYEAEYEVNGQPFTQKVSFVAEVTNGHVKRVHYSTDEDLTRIEQK | -0.24
DDRQMDHFAHQFERNNPDEYRKMLDPNARAEYGDKDYSGREQVQTLADTLHKQFDHLEVKDYRFNNGRAEFRYEAKFNGKTLTMKMVAEVKNGHIKHVVFRVTDPRQRKDLQREFG | 0.156
DDRQQRVMEKILTAVQKGDEKKVKDQMDPNVKVHVGEFHYQGEEQLEKTLRHRTKELEIEYREITFRVDNGNVHVDVKAQLNNNGKPQQFTQHFSAEVDGDRVKTVHVEVKQ | -0.533
DDRQRRQFAERVQKVLRTGDPERFMQMADENVQVHVGDQTYRGRDQAEKNMREFVKRVDHLQIISFHFEGNHAVIVFIAHFDGKEATIEMVIRFSNGHIKEMKINPDQIRQMRS | 1.21
DDRQVEELVRIMQRGNFKDLASNLDENVHVKVGNRTYHGREKAETVFNRLQQRIDHYEIIHVQERPNRAQVRFRFRVNGRTVEATVKAQAHNGRIKEMNLQARDEDAQREIDHAID | 1.24
DDRQVERLAKEVVKNLETGNPNEFMKLMDPNAKFEVGDQDIHGREQWSEWVDHLSKHVDSLEVKSVTAHNGRVDIDMVFRVNGEKRVVKIVITVKNGHIKEMEIREQ | 1.2
DDRRLAQEMANQFRKIRETGNPDDIVQLADPNAKYRIGERDVHGKEEIKKDFQEEKDRVDRIEVEIDSIEVKNGEVRVTFILRRTHNGRRESRTLVMNARVDNGRLTMESATEK | -0.205
DDRTKMQELLDKLREAAEDGDRRKVHQLFDENARFEIGDTEFHGMTSAAKRLAEEWKRHDHVQFSVREIRVEPGRFVVHMQERNSHNGKSDSKNVVMTVTKSNGQIRATKVKVR | 0.387
